Experimental data: article PMC10504544, “1-deoxy-D-xylulose-5-phosphate synthase from Pseudomonas aeruginosa and Klebsiella pneumoniae reveals conformational changes upon cofactor binding” (The Journal of Biological Chemistry, 2023)

Legend:
[1] = substrate: CC(=O)C(=O)O; assay: steady-state kinetics (Km), IspC-coupled assay; assay type: biochemical, Pseudomonas aeruginosa; settings: ThDP, Mg2+
[2] = substrate: O=CC(O)COP(=O)(O)O; assay: steady-state kinetics (Km), IspC-coupled assay; assay type: biochemical, Pseudomonas aeruginosa; settings: ThDP, Mg2+

B1: 1-deoxy-D-xylulose-5-phosphate synthase (paDXPS) (Pseudomonas aeruginosa PAO1) (protein)
chain: MPKTLHEIPRERPATPLLDRASSPAELRRLGEADLETLADELRQYLLYTVGQTGGHFGAGLGVVELTIALHYVFDTPDDRLVWDVGHQAYPHKILTERRELMGTLRQKNGLAAFPRRAESEYDTFGVGHSSTSISAALGMAIAARLQGKERKSVAVIGDGALTAGMAFEALNHASEVDADMLVILNDNDMSISHNVGGLSNYLAKILSSRTYSSMREGSKKVLSRLPGAWEIARRTEEYAKGMLVPGTLFEELGWNYIGPIDGHDLPTLVATLRNMRDMKGPQFLHVVTKKGKGFAPAELDPIGYHAITKLEAPGSAPKKTGGPKYSSVFGQWLCDMAAQDARLLGITPAMKEGSDLVAFSERYPERYFDVAIAEQHAVTLAAGMACEGMKPVVAIYSTFLQRAYDQLIHDVAVQHLDVLFAIDRAGLVGEDGPTHAGSFDISYLRCIPGMLVMTPSDEDELRKLLTTGYLFDGPAAVRYPRGSGPNHPIDPDLQPVEIGKGVVRRRGGRVALLVFGVQLAEAMKVAESLDATVVDMRFVKPLDEALVRELAGSHELLVTIEENAVMGGAGSAVGEFLASEGLEVPLLQLGLPDYYVEHAKPSEMLAECGLDAAGIEKAVRQRLDRQ
- Km [1]: 184 ± 25 µM
- Km [2]: 357 ± 77 µM
